Measured values taken from patent publication US20190225682A1.

Biological target: cyno ST2L (cyno)
Assay: affinity table, cyno ST2L; method not stated

B1: STLM107 (antibody, from another filing, V domains shown)
VH: EVQLLESGGGLVQPGGSLRLSCAASGFTFSDYAMFWVRQAPGKGLEWVSAIEGEGGETNYADSVKGRFTISRDNSKNTLYLQMNSLRAEDTAVYYCARDPWSTEGSFFVLDYWGQGTLVTVSS
VL: EIVLTQSPATLSLSPGERATLSCRASQSVDDDLAWYQQKPGQAPRLLIYDASNRATGIPARFSGSGSGTDFTLTISSLEPEDFAVYYCQQYIGAPITFGQGTKVEIK
For B1, the koff was 0.00065 s⁻¹.
